Consider nine molecules from patent publication US20210079060A1 (ALETA BIOTHERAPEUTICS, published 2021).

Experiment [1] has as its target T1, CD20 (UniProt P11836 1-297, limits assumed).
T1 construct: whole, on cells; also called CD20 positive HEK293 cells
T1 sequence (looked up): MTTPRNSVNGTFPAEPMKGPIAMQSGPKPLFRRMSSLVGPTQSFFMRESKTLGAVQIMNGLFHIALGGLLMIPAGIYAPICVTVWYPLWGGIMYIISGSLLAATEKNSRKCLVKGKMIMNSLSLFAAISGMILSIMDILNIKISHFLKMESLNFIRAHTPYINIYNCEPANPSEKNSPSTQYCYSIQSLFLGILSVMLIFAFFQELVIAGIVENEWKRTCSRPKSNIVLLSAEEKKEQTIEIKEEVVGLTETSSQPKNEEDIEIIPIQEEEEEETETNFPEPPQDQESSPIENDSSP
The experiment is described as follows: FACS on CD20 positive HEK293 cells, detected with FMC63-PE.

Experiment [2] deals with T1, CD20. The experiment in a line: binding to CD20 positive HEK293 cells (method of the fit not stated); scFv-based construct #302 (Leu16 scFv), not the full mAb.
The target in experiment [3] is T1, CD20. The experiment is described as follows: FACS on 293T cells transfected with CD20, FMC63-PE detection.
The next experiment has as its target T2, EGFR (UniProt P00533 25-1210, limits assumed).
T2 construct: whole, on cells; also called EGFR positive cells; EGFR positive H292 cells
The experiment is described as follows: binding to EGFR positive cells (data not shown).

In experiment [4] the target is T3, Clec12A (human, UniProt Q5QGZ9 1-265).
T3 construct: whole, on cells; also called CLL-1; MICL
T3 sequence (looked up): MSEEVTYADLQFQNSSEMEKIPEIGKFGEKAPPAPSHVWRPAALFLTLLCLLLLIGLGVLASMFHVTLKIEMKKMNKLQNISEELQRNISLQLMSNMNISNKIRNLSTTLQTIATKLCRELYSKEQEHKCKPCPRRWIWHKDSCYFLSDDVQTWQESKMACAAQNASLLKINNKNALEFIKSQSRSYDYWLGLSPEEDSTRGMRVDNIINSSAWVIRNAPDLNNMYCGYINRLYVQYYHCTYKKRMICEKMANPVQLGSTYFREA
The experiment in a line: sandwich ELISA as for the other curves; the curve still rises at 1 ug/ml (about 1.33), no upper plateau; fit D 1.55. (In general: In an ELISA, binding on a coated surface is turned into a signal by an enzyme label.)

Experiment [5] deals with T3, Clec12A. The experiment in a line: sandwich ELISA as for the other curves; the curve stays near 0.13 up to about 0.33 ug/ml and reaches only about 0.18 at 1 ug/ml (fit A 0.13, D 0.202).
Experiment [6] deals with T3, Clec12A. The experiment is described as follows: FACS on Clec12A-expressing U937 cells, % Binding against concentration, detected with FMC63-PE; molar value with printed MW 43.7 kDa.
Experimental: (§1) In addition, bispecific constructs were generated and assayed. […] These constructs were assayed for binding to U937 cells. […] Cells were then spun, washed twice, fixed, and analyzed by FACS.
The target in experiment [7] is T3, Clec12A. The experiment is described as follows: FACS on Clec12A-expressing U937 cells, % Binding against concentration, detected with FMC63-PE.
Experimental: as §1
Experiment [8] deals with T3, Clec12A. The experiment in a line: FACS on Clec12A expressing U937 cells, detected with FMC63-PE.
Experiment [9] has as its target T3, Clec12A. The experiment in a line: sandwich ELISA: coated with FMC63, construct titrated (x-axis ug/ml), followed by Clec12A-bio, detected by HRP-SA.
The target in experiment [10] is T3, Clec12A. The experiment is described as follows: FACS on Clec12A expressing U937 cells, detected with a-His-PE.
For experiment [11], the target named is T3, Clec12A. The experiment is described as follows: sandwich ELISA: coated with FMC63, construct titrated, followed by Clec12A-bio, detected by HRP-SA.
The target in experiment [12] is T3, Clec12A. The experiment in a line: sandwich ELISA: coated with FMC63, construct titrated (x-axis ug/ml), followed by Clec12A-bio, detected by HRP-SA. The source holds these as a separate data set.

Several values for one entry are separate records, joined by “and”; a condition that tells them apart may be missing. Equal entries are not always repeated. Where two headings read alike, the source gives them in different places.

B1: anti-CD20 scFv-CD19 D1+2 C term mutant #2 (scFv)
chain: QVKLQESGAELVKPGASVKMSCKASGYTFTSYNMHWVKQTPGQGLEWIGAIYPGNGDTSYNQKFKGKATLTADKSSSTAYMQLSSLTSEDSADYYCARSNYYGSSYWFFDVWGQGTTVTVSSASTGGGGSGGGGSGGGGSDIELTQSPTILSASPGEKVTMTCRASSSVNYMDWYQKKPGSSPKPWIYATSNLASGVPARFSGSGSGTSYSLTISRVEAEDAATYYCQQWSFNPPTFGGGTKLEIKRAAAGGGGSGGGGSGGGGSGGGGSPEEPLVVKVEEGDTAALWCLKGTSDGPTQQLTWSRESPLKPFLKYSLGVPGLGVHVRPDAISVVIRNVSQQMGGFYLCQPGPPSEKAWQPGWTVNVEGSGELFRWNVSDLGGLGCGLKNRSSEGPSSPSGKLMSPKLYVWAKDRPEIWEGEPPCLPPRDSLNQSLSRDLTVAPGSTLWLSCGVPPDSVSRGPLSWTHVHPKGPKSLLSLELKDDRPARDMWVMGTSLMLPRATAQDAGKWYCHRGNLTMSFHLEITARPSRHHHHHH
notes: scFv of anti-CD20 mAb Leu16 fused to a CD19 variant; also called Leu16scFv-CD19 construct
Usually EC50 stands for the concentration at which the effect is half-maximal. Higher therefore signals a need for much substance. As usually defined, the Kd is the equilibrium constant for the complex coming apart. A high value points to a looser complex. In the case of B1, the EC50 with CD20 [1] is 0.161 µg/mL and 2.78 nM; with CD20 [3], 0.0754 µg/mL and 1.3 nM. Also, the dissociation constant Kd with CD20 [2] is roughly 3 nM.

B2: CD19 ECD N term mutant#-EGFR Fn3 (designed binder)
chain: PEEPLVVKVEEGDTAALWCLKGTSDGPTQQLTWSRESPLKPFLKYSLGVPGMGVHVRPNAVSLVISNVSQQMGGFYLCQPGPPSEKAWQPGWTVNVEGSGELFRWNVSDLGGLGCGLKNRSSEGPSSPSGKLMSPKLYVWAKDRPEIWEGEPPCLPPRDSLNQSLSRDMTVAPGSTLWLSCGVPPDSVSRGPLSWTHVHPKGPKSLLSLELKDDRPARDMWVMETGLVLPRATAQDAGKWYCHRGNVTTSYHLEITARPVSAHTPLRTGGWKGGGGSGGGGSGGGGSGGGGSVSDVPRDLEVVAATPTSLLISWFDYAVTYYRITYGETGGNSPVQEFTVPGWISTATISGLKPGVDYTITVYAVTDNSHWPFRSTPISTNYRTEIDKPPQHHHHHH
notes: Fusion protein; also called construct #230; CD19-Fn3/EGFR
As for B2, the binding result with EGFR is listed as “binds”.

B3: CD19 ECD N term mutant#3-EGFR Fn3 (designed binder)
chain: PEEPLVVKVEEGDTAALWCLKGTSDGPTQQLTWSRESPLKPFLKLSLGLPGMGVHMRPGAVSAVISNVSQQMGGFYLCQPGPPSEKAWQPGWTVNVEGSGELFRWNVSDLGGLGCGLKNRSSEGPSSPSGKLMSPKLYVWAKDRPEIWEGEPPCLPPRDSLNQSLSRDMTVAPGSTLWLSCGVPPDSVSRGPLSWTHVHPKGPKSLLSLELKDDRPARDMWVMGTSLILPRATAQDAGKYYCHRGNLTMSFHLEVVARPVKAHSDLRTGGWKGGGGSGGGGSGGGGSGGGGSVSDVPRDLEVVAATPTSLLISWFDYAVTYYRITYGETGGNSPVQEFTVPGWISTATISGLKPGVDYTITVYAVTDNSHWPFRSTPISTNYRTEIDKPPQHHHHHH
notes: Fusion protein; also called construct #229; CD19-Fn3/EGFR
Take B3: the binding result with EGFR is given as “binds”.

B4: CD19 D1+2-anti-CD20 scFv (VH/VL) (scFv)
chain: PEEPLVVKVEEGDNAVLQCLKGTSDGPTQQLTWSRESPLKPFLKLSLGLPGLGIHMRPLAIWLFIFNVSQQMGGFYLCQPGPPSEKAWQPGWTVNVEGSGELFRWNVSDLGGLGCGLKNRSSEGPSSPSGKLMSPKLYVWAKDRPEIWEGEPPCLPPRDSLNQSLSQDLTMAPGSTLWLSCGVPPDSVSRGPLSWTHVHPKGPKSLLSLELKDDRPARDMWVMETGLLLPRATAQDAGKYYCHRGNLTMSFHLEITARPGGGGSGGGGSGGGGSGGGGSMAQVKLQESGAELVKPGASVKMSCKASGYTFTSYNMHWVKQTPGQGLEWIGAIYPGNGDTSYNQKFKGKATLTADKSSSTAYMQLSSLTSEDSADYYCARSNYYGSSYWFFDVWGQGTTVTVSSGGGGSGGGGSGGGGSDIELTQSPTILSASPGEKVTMTCRASSSVNYMDWYQKKPGSSPKPWIYATSNLASGVPARFSGSGSGTSYSLTISRVEAEDAATYYCQQWSFNPPTFGGGTKLEIKRAAAHHHHHH
notes: Wild type CD19 D1+D2 N-terminal to the Leu16 scFv; also called construct #83; wild type CD19 D1+D2 fusion protein
On to B4, for which the EC50 with CD20 [3] was 0.379 µg/mL and 6.68 nM.

B5: #328 (VHH)
VHH: QVQLQESGGGLVQPGGSLRLSCAASGFTFNSYAMTWVRQAPGKGLEWVSDINSGGGSTNYADSVKGRFTISRDNAKNTLYLQMNSLKPEDTAVYYCATELRGSDYYRGPIREYAYWGQGTLVTVSS
notes: also called anti CLEC12a VHH 1H1-G4Sx4-CD19 C-term mutant #2-His
For the molecule B5, the concentration for a half-maximal effect (EC50) with Clec12A [4] is 0.155 µg/mL and 3.33 nM.

B6: #331 (VHH)
VHH: QVQLQQSGGGLVQAGGSLTLSCAATGRTIDNGAMAWFRQAPGKQRELVAAINWSGGATFYTDSVKYRFTISRDNVRHTLDLQMTSLKPEDTTIYFCASRRGVDLRRNSYEYDYWGRGTLVTVSS
notes: also called anti CLEC12a VHH 2C2-G4Sx4-CD19 C-term mutant #2-His
Regarding B6, in the experiment with Clec12A [5], the EC50 is 0.698 µg/mL and 15 nM.

B7: anti-CLEC12a VHH 2H3-CD19 D1+2 C term mutant #2 (VHH)
VHH: QVQLQESGGGLVQAGGSLRLSCVASGSIRSINVMGWYRQAPGKQRELVAACASDGNTYYADSVKGRFTISRDNAEKTVYLQMNNLKPDDTAVYYCDANSRGNYYSGQGTQVTVSS
notes: also called construct #330
For orientation: EC50 (read off the curve) means the concentration needed to bring the measured effect to its halfway point. Low readings indicate a more potent agent, high ones a less potent agent. As for B7, the EC50 with Clec12A [6] was 1.03 nM; in the experiment with Clec12A [7] it was 0.0449 µg/mL; in the experiment with Clec12A [8] it was 0.0723 µg/mL and 1.54 nM; with Clec12A [9] it was 0.0168 µg/mL and 0.361 nM; with Clec12A [10], 0.0446 µg/mL and 0.95 nM. In addition, the “EC50 (read off the curve)” value with Clec12A [7] was roughly 0.05 µg/mL. Also, the “C of the 4-P fit (midpoint)” value with Clec12A [9] stood at 0.0168 µg/mL.

B8: #320 (VHH)
fusion protein, single chain: PEEPLVVKVEEGDTAVLPCLKGTSDGPTQQLTWSRESPLKPFLKYSLGVPGLGVHVRPDAISVVIRNVSQQMGGFYLCQPGPPSEKAWQPGWTVNVEGSGELFRWNVSDLGGLGCGLKNRSSEGPSSPSGKLMSPKLYVWAKDRPEIWEGEPPCLPPRDSLNQSLSQDLTMAPGSTLWLSCGVPPDSVSRGPLSWTHVHPKGPKSLLSLELKDDRPAREMIVDETGLLLPRATAQDAGKWYCSRGNVTTSYHLEITARPVKAHSDLRTGGWKGGGGSGGGGSGGGGSGGGGSAVQLQESGGGLVQAGGSLRLSCAASGSDRSINVMNWYRQAPGKQRELVAAITSGGTTNYAQSVKGRVTISRDSAKNTVYLQMNSLKPEDTAVYFCKADTRWGGMYWGPGTQVTVSSTSGPGGQGAEQKLISEEDLGAHHHHHHGAS
notes: also called construct #320; CD19 mutant #2-G4Sx4-anti CLEC12a VHH 1B11 myc His
B8: the binding result in the experiment with Clec12A [11] is recorded as “no binding (tested: 1 ug/ml)”.

B9: CD19 ECD N term mutant #2-G4Sx4-anti CLEC12a VHH 1B12-His (VHH)
chain: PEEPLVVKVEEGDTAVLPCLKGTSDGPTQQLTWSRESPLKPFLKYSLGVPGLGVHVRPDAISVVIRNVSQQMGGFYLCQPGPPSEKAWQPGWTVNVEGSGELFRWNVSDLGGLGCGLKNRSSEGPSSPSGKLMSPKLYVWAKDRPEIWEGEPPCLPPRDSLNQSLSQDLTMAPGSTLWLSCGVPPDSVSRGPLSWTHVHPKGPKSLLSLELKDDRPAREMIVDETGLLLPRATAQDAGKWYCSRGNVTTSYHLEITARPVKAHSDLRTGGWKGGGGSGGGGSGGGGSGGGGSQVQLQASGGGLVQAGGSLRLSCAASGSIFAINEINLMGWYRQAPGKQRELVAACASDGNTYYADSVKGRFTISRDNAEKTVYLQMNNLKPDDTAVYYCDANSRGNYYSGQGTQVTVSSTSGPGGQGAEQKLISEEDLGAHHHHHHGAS
notes: CD19 variant-VHH fusion; also called CD19-VHH1B12/Clec12A
In the case of B9, the EC50 in the experiment with Clec12A [8] is 0.155 µg/mL and 3.3 nM; with Clec12A [12], 0.004 µg/mL and 0.086 nM; with Clec12A [10] it was 0.233 µg/mL and 4.96 nM. In the experiment with Clec12A [12], the “C of the 4-P fit (midpoint)” value turned out to be 0.00403 µg/mL.
